This is an account of results in article PMC3470471 (Circulation research, 2012).

The series concerns the molecule itself. Description: cross-linking.

B1: myosin light chain 1 (rat cardiac myofibrils) (natural protein)
chain: not shown
In the case of B1, the stoichiometry N (commonly the number of molecules, sites or subunits per partner or assembly) is 2.
